In patent US20250109207A1:

Legend:
[1] = target: Human FcγRIIa (H131) (human) (UniProt P12318); assay: SPR (Biacore); His-tagged FcγR captured on anti-penta-His chip, antibody injected
[2] = target: Human FcγRIIa (R131) (human) (UniProt P12318); assay: as above
Human FcγRIIb (human) [3] = target: Human FcγRIIb (human) (UniProt P31994); assay: as above
[4] = target: Human FcγRIIIa (V176) (human) (UniProt P08637); assay: as above
[5] = target: Human FcγRIIa (H131) (human) (UniProt P12318); assay: SPR (Biacore); His-tagged FcγR captured, antibody injected; kinetic fit or steady state
[6] = target: Human FcγRIIa (R131) (human) (UniProt P12318); assay: as above
Human FcγRIIb (human) [7] = target: Human FcγRIIb (human) (UniProt P31994); assay: as above

Chain of Human FcγRIIa (H131) (human) (P12318 36-218 limits assumed): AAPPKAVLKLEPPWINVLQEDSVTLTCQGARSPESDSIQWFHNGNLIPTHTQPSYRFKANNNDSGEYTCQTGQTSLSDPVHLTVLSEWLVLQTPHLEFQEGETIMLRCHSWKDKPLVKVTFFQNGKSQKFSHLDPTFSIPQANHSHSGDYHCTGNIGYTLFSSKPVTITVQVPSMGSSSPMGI
Chain of Human FcγRIIa (R131) (human) (P12318 36-218 H167R limits assumed): as the sequence (P12318 36-218 limits assumed) above, with H132R counted along it
Chain of Human FcγRIIb (human) (P31994 46-217 limits assumed): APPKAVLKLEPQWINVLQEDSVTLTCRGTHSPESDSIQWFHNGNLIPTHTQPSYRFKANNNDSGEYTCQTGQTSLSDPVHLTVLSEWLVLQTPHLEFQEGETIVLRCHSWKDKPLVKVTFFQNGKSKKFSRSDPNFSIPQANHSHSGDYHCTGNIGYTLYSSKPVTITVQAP
Chain of Human FcγRIIIa (V176) (human) (P08637 17-208 F176V limits assumed): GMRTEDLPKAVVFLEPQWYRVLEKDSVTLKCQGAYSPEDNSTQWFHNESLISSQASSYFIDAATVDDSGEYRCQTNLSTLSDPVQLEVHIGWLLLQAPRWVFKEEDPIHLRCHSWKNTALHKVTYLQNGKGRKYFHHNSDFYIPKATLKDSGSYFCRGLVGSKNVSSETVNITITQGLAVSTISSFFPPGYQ

- binding signal (RU) [1]: 419 RU
- binding signal (RU) [2]: 340 RU
- binding signal (RU) (Human FcγRIIb (human) [3]): 226 RU
- binding signal (RU) [4]: 34 RU
- Kd [5]: 1610 nM
- Kd [6]: 1320 nM
- Kd (Human FcγRIIb (human) [7]): 12300 nM
B1: mAb3, IgG4s (antibody, part only; not given: variable domains and light chain, not shown: another chain or arm of the molecule)
Fc: ESKYGPPCPPCPAPPVAGPSVFLFPPKPKDTLMISRTPEVTCVVVDVSQEDPEVQFNWYVDGVEVHNAKTKPREEQFNSTYRVVSVLTVLHQDWLNGKEYKCKVSNKGLPSSIEKTISKAKGQPREPQVYTLPPSQEEMTKNQVSLTCLVKGFYPSDIAVEWESNGQPENNYKTTPPVLDSDGSFFLYSRLTVDKSRWQEGNVFSCSVMHEALHNHYTQKSLSLSLGK
